B3: endogenous p75 of mouse post-natal (P9) cerebellum / cerebellar neurons (receptor, UniProt Q9Z0W1 32-427, looked up)
chain: KETCSTGMYTHSGECCKACNLGEGVAQPCGANQTVCEPCLDSVTFSDVVSATEPCKPCTECLGLQSMSAPCVEADDAVCRCSYGYYQDEETGRCEACSVCGVGSGLVFSCQDKQNTVCEECPEGTYSDEANHVDPCLPCTVCEDTERQLRECTPWADAECEEIPGRWITRSTPPEGSDVTTPSTQEPEAPPERDLIASTVADTVTTVMGSSQPVVTRGTADNLIPVYCSILAAVVVGLVAYIAFKRWNSCKQNKQGANSRPVNQTPPPEGEKLHSDSGISVDSQSLHDQQTHTQTASGQALKGDGNLYSSLPLTKREEVEKLLNGDTWRHLAGELGYQPEHIDSFTHEACPVRALLASWGAQDSATLDALLAALRRIQRADIVESLCSESTATSPV
notes: Endogenous protein in lysates; also called p75NTR

How the values were obtained:
[1] = target: B3; assay: figure legend (FIG. 6C): co-immunoprecipitation of p75 and Rho GDI from cerebellar neurons
Experimental: The lysates were centrifuged at 13,000×g for 20 min, and the supernatants were collected. […] The immunocomplex was collected with protein A sepharose (Amersham Pharmacia). The suspension was centrifuged at 1,000×g for 5 min. The pellets were washed 4 times with lysis buffer, and subjected to SDS-PAGE, followed by immunoblot analysis using anti-Rho GDIα antibody (Sigma) or anti-RhoA antibody (Santa Cruz Biotechnology).

[2] = target: T1, amino-terminally FLAG-tagged human p75 (human, UniProt P08138 29-427); assay: co-precipitation: p75 precipitated from transfected 293T cells (anti-FLAG, protein A sepharose) incubated with GST-Rho GDI, anti-GST blot
T1 construct: also called FLAG-tagged p75; FLAG-p75; not shown: FLAG tag
T1 sequence: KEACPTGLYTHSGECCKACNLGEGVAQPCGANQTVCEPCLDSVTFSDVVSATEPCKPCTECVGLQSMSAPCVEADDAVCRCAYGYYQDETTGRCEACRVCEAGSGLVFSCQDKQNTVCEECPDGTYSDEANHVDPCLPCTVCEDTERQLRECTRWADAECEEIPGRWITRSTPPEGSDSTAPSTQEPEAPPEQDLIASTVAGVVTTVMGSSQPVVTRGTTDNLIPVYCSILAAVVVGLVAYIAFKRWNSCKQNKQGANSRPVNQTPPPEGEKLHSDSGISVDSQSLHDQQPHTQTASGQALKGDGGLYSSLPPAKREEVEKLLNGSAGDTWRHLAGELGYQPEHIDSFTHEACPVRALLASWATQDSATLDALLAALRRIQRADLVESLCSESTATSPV

[3] = target: T2, Nogo receptor, endogenous in P9 cerebellum (UniProt Q99PI8 27-447); assay: figure legend (FIG. 11C)
T2 construct: also called NgR; the Nogo receptor
T2 sequence (looked up): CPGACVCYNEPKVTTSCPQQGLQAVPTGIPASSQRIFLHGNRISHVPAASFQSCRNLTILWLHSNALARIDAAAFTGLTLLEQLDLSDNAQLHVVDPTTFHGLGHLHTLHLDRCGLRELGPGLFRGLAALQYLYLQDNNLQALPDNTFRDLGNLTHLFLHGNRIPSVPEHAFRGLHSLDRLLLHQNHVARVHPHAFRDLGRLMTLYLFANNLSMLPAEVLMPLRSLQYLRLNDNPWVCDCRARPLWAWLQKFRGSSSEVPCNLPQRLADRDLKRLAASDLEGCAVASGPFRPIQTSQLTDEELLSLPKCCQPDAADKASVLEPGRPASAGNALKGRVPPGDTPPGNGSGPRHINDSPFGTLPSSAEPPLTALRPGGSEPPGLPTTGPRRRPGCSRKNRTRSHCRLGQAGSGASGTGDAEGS

B1: Rho GDI, endogenous in mouse post-natal cerebellar neurons (other, UniProt Q99PT1 2-204, looked up)
chain: AEQEPTAEQLAQIAAENEEDEHSVNYKPPAQKSIQEIQELDKDDESLRKYKEALLGRVAVSADPNVPNVIVTRLTLVCSTAPGPLELDLTGDLESFKKQSFVLKEGVEYRIKISFRVNREIVSGMKYIQHTYRKGVKIDKTDYMVGSYGPRAEEYEFLTPMEEAPKGMLARGSYNIKSRFTDDDKTDHLSWEWNLTIKKEWKD
[1]
  binding result: binds

B2: recombinant human GST-Rho GDI (other)
chain: MAEQEPTAEQLAQIAAENEEDEHSVNYKPPAQKSIQEIQELDKDDESLRKYKEALLGRVAVSADPNVPNVVVTGLTLVCSSAPGPLELDLTGDLESFKKQSFVLKEGVEYRIKISFRVNREIVSGMKYIQHTYRKGVKIDKTDYMVGSYGPRAEEYEFLTPVEEAPKGMLARGSYSIKSRFTDDDKTDHLSWEWNLTIKKDWKD
notes: Bought (Cytoskeleton); also called recombinant Rho GDI; not shown: glutathione S-transferase (GST) fusion moiety
[2]
  binding result: binds

## B3
[3]
  binding result: binds

Reference: patent US20070054848A1 (published 2007)
